Measured values taken from PMC11500499, “Molecular dissection of the chromosome partitioning protein RocS and regulation by phosphorylation”.

Target: T1, RocS WT-ΔAH (Streptococcus pneumoniae R6, UniProt Q8DQ15 1-152)
T1 sequence: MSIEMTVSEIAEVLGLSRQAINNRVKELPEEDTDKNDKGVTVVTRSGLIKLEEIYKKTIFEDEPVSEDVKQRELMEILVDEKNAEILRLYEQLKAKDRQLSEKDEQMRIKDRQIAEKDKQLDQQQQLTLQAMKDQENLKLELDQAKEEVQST
Assay: MST; MST: 25 mM Tris/HCl pH 7.5, 100 mM NaCl, 5% glycerol, 0.025% Tween-20, 25 C, 10 nM DNA probe; EMSA: 25 mM Tris/HCl pH 7.5, 100 mM NaCl, 5% glycerol, 100 ng DNA
Conditions: protein: recombinant; tags: C-terminal 6xHis, removed with TEV protease; label: 5' Cy5 on strand 1; blunt

B1: dnaC_Cy5 (dsDNA)
DNA 1: GTCAACCAAGCTTACGAAGCGTCACAACCAGCTGATGAAATTATTGCTCA
DNA 2: TGAGCAATAATTTCATCAGCTGGTTGTGACGCTTCGTAAGCTTGGTTGAC
For B1, the Kd was 34 µM.
